Reference: paper PMC5594205 (Molecular Cell, 2017)
Read-outs that look alike come from different tables or passages of the source. One block for each binder: values may come before it.

B1: recombinant human Rad51 (natural protein, UniProt Q06609 1-339, looked up)
chain: MAMQMQLEANADTSVEEESFGPQPISRLEQCGINANDVKKLEEAGFHTVEAVAYAPKKELINIKGISEAKADKILAEAAKLVPMGFTTATEFHQRRSEIIQITTGSKELDKLLQGGIETGSITEMFGEFRTGKTQICHTLAVTCQLPIDRGGGEGKAMYIDTEGTFRPERLLAVAERYGLSGSDVLDNVAYARAFNTDHQTQLLYQASAMMVESRYALLIVDSATALYRTDYSGRGELSARQMHLARFLRMLLRLADEFGVAVVITNQVVAQVDGAAMFAADPKKPIGGNIIAHASTTRLYLRKGRGETRICKIYDSPCLPEAEAMFAINADGVGDAKD

Experiments:
Experiment in all cases: pull-down
[1] = target: recombinant human Pol α-primase complex (full-length) (human, UniProt P09884 1-1462; Q14181 1-598; P49642 1-420; P49643 1-509)
Sequence of recombinant human Pol α-primase complex (full-length) (Q14181 whole entry, chain 2 of 3): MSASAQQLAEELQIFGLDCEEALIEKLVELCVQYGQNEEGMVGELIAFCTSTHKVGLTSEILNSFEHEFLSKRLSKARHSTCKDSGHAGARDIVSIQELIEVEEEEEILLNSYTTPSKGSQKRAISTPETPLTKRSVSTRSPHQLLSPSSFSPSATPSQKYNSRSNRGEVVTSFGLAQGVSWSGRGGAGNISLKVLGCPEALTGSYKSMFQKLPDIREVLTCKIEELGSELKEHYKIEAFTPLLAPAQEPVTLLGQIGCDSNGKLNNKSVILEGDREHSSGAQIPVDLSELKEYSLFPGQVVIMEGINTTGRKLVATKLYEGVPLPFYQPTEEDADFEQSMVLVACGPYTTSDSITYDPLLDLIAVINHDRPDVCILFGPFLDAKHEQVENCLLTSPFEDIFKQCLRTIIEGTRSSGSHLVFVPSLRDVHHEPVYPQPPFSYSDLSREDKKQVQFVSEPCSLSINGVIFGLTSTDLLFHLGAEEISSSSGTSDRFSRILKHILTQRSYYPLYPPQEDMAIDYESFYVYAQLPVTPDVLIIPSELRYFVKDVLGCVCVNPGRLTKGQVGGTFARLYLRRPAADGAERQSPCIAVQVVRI
Sequence of recombinant human Pol α-primase complex (full-length) (P49642 whole entry, chain 3 of 3): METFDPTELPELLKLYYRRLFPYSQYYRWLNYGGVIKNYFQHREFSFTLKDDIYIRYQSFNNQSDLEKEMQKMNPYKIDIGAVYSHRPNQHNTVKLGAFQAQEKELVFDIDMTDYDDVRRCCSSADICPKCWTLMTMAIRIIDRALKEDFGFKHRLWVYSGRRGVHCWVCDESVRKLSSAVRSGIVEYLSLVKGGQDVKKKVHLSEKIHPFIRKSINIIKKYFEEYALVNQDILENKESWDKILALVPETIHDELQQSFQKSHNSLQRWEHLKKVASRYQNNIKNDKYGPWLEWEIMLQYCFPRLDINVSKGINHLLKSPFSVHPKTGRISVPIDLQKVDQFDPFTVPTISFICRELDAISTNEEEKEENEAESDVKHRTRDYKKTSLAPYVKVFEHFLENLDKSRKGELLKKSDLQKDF
Sequence of recombinant human Pol α-primase complex (full-length) (P49643 whole entry, chain 4 of 3): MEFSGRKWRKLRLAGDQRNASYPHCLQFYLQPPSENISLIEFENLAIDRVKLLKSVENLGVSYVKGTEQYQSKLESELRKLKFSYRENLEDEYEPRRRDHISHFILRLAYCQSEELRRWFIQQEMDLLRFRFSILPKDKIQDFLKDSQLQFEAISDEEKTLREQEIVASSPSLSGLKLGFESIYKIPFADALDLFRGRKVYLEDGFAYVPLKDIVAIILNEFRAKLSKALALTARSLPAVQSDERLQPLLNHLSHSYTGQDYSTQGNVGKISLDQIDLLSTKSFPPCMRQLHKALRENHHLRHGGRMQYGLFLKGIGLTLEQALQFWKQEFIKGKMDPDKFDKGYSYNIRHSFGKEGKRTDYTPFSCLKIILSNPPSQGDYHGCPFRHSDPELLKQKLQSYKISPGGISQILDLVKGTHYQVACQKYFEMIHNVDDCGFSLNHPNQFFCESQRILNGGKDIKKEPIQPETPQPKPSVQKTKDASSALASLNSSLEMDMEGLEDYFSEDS

recombinant human Rad51 [2] = target: B1
recombinant human Rad51 [3] = target: B1; remark: listed apart in the source

Binder: B1
binding result [1]: binds

binding result (recombinant human Rad51 [2]): binds
B2: His6-MBP-Polymerase α (1-109) (domain or fragment, human, UniProt P09884 1-109, looked up)
chain: MAPVHGDDSLSDSGSFVSSRARREKKSKKGRQEALERLKKAKAGEKYKYEVEDFTGVYEEVDEEQYSKLVQARQDDDWIVDDDGIGYVEDGREIFDDDLEDDALDADEK

binding result (recombinant human Rad51 [3]): binds
Binder: LLGFHTASGKKVKIAKESLDKVKNLFDE [Brca2 BRC4 peptide]
